Test results from patent publication US20110059889A1 (SYNTONIX PHARMACEUTICALS, published 2011).
Read-outs that look alike come from different tables or passages of the source. Bridge positions count the residues as written; N and C are the ends. Square brackets hold non-standard residues; d marks the D form. Ends that are not written are not given here. NMeL = CN[C@@H](CC(C)C)C(=O)O; Pen = CC(C)(S)[C@H](N)C(=O)O; Sar = CNCC(=O)O

Assays:
[1] = target: T1, soluble human FcRn (shFcRn) (human, UniProt P55899 24-297; P61769 21-119); assay: SPR pH 6; 2-PyrrolidinylAla in place of His
T1 construct: Biotinylated for the ELISA, amine-coupled to a CM5 chip for SPR; also called biotinylated shFcRn
Description: (§1) The following steps were performed to cross-link soluble human or cynomolgus FcRn to the dextran surface of a CM5 sensor chip (Biacore AB, Uppsala, Sweden) by an amine coupling reaction involving 1-ethyl-(3-dimethylaminopropyl)-carbodiimide hydrochloride (EDC) (Biacore AB, Uppsala, Sweden) and N-hydroxysuccinimide (NHS) (Biacore AB, Uppsala, Sweden) as recommended by Biacore (BIAapplications Handbook, version AB, section 4.2, Biacore AB, Uppsala, Sweden). […] Residual sites on the FcRn flow cell were blocked with 1 M ethanolamine hydrochloride pH 8.5 (Biacore AB, Uppsala, Sweden). A control flow cell was blocked with ethanolamine for reference subtraction. For analysis of the monomeric peptides, FcRn was coated to a final density of 4000-5000 response units (RU). For analysis of the peptide dimers, FcRn was coated to a density of 2000-2500 RU. All SPR measurements were performed using a BIACORE 3000 Instrument (Biacore AB Uppsala, Sweden). For measurements done at either pH 6 or pH 7.4, experiments were performed in 50 mM phosphate, 100 mM sodium chloride, 0.01% surfactant P20 (Biacore AB, Uppsala, Sweden).
(§2) Ten, 2-fold dilutions of the peptide were injected over the FcRn-CM5 chip at a rate of 20 μl/min for 2 min. The peptide was dissociated from the chip for 2.5 minutes with buffer. […] Sensorgrams were generated and analyzed using BiaEval software version 3.1 (Biacore AB, Uppsala, Sweden). […]

[2] = target: T1, soluble human FcRn (shFcRn); assay: SPR pH 6; Orn in place of His
Description: as §1, §2

[3] = target: T1, soluble human FcRn (shFcRn); assay: SPR pH 6; 4-PiperidylAla in place of His
Description: as §1, §2

[4] = target: T1, soluble human FcRn (shFcRn); assay: SPR pH 7.4; 4-PiperidylAla in place of His
Description: as §1, §2

[5] = target: T1, soluble human FcRn (shFcRn); assay: IgG competition ELISA
Description: (§3) The wells were coated with 100 μl/well of 1 μg/ml biotinylated-shFcRn in Buffer A. The plate was sealed and incubated at 37° C. for 2 hours. Afterwards, the plate was washed with 200 μl/well of Buffer B (Buffer B: 100 mM MES pH 6, 150 mM NaCl, 0.5% BSA IgG-free (Jackson ImmunoResearch, West Grove, Pa.), 0.05% Tween-20). […] To allow for mixing, the plate was rocked for 2 minutes, sealed and incubated at 37° C. for 2 hours. […] The plate was covered, incubated for 30 minutes at room temperature and washed 4 times with 200 μl/well of ice-cold buffer B. SureBlue TMB substrate solution (100 μl/well, KPL, Gaithersburg, Md.) was added and the plate was allowed to incubate at room temperature until color developed, which took 5 to 10 minutes. Once color developed, 100 μl/well of TMB stop solution (KPL, Gaithersburg, Md.) was added and the absorbance was measured at 450 nm. The data was plotted as absorbance vs. peptide concentration to derive the inhibitory concentration 50% (IC₅₀) values.

[6] = target: T1, soluble human FcRn (shFcRn); assay: IgG competition ELISA; remark: listed apart in the source
Description: as §3

[7] = target: T1, soluble human FcRn (shFcRn); assay: SPR pH 7.4; 3PyridylAla in place of His
Description: as §1, §2

[8] = target: T1, soluble human FcRn (shFcRn); assay: SPR pH 6; 3PyridylAla in place of His
Description: as §1, §2

[9] = target: T1, soluble human FcRn (shFcRn); assay: IgG competition ELISA; remark: listed apart in the source
Description: as §3

[10] = target: T1, soluble human FcRn (shFcRn); assay: SPR pH 7.4
Description: as §1, §2

[11] = target: T1, soluble human FcRn (shFcRn); assay: SPR pH 6
Description: as §1
(§4) Ten, 2-fold dilutions of the peptide were injected over the FcRn-CM5 chip at a rate of 20 μl/min for 2 min. The peptide was dissociated from the chip for 2.5 minutes with buffer. Any remaining peptide was removed from the chip with a 30 second injection of HBS-P buffer (Biacore AB, Uppsala, Sweden) at a rate of 30 μl/min. Sensorgrams were generated and analyzed using BiaEval software version 3.1 (Biacore AB, Uppsala, Sweden). The equilibrium RU observed for each injection was plotted against concentration. The equilibrium KD values were derived by analysis of the plots using the steady state affinity model included in the BiaEval software.

[12] = target: T1, soluble human FcRn (shFcRn); assay: SPR pH 7.4; remark: listed apart in the source
Description: as §1, §2

[13] = target: T1, soluble human FcRn (shFcRn); assay: SPR pH 6; Peptide No. 31: lower-case c at both Cys (QRF-c-…-c-NGP)
Description: as §1, §2

[14] = target: T1, soluble human FcRn (shFcRn); assay: IgG competition ELISA; remark: listed apart in the source
Description: as §3

[15] = target: T1, soluble human FcRn (shFcRn); assay: SPR pH 6; remark: listed apart in the source
Description: as §1, §4

[16] = target: T1, soluble human FcRn (shFcRn); assay: SPR pH 6; remark: listed apart in the source
Description: as §1, §2

[17] = target: T1, soluble human FcRn (shFcRn); assay: SPR pH 6; remark: listed apart in the source
Description: as §1, §4

[18] = target: T1, soluble human FcRn (shFcRn); assay: IgG competition ELISA; remark: listed apart in the source
Description: as §3

[19] = target: T1, soluble human FcRn (shFcRn); assay: SPR pH 6; remark: listed apart in the source
Description: as §1, §4

[20] = target: T1, soluble human FcRn (shFcRn); assay: SPR pH 6; remark: listed apart in the source
Description: as §1, §4

[21] = target: T1, soluble human FcRn (shFcRn); assay: SPR pH 6; remark: listed apart in the source
Description: as §1, §2

[22] = target: T1, soluble human FcRn (shFcRn); assay: SPR pH 6; remark: listed apart in the source
Description: as §1, §4

[23] = target: T1, soluble human FcRn (shFcRn); assay: IgG competition ELISA; remark: listed apart in the source
Description: as §3

[24] = target: T1, soluble human FcRn (shFcRn); assay: SPR pH 6; remark: listed apart in the source
Description: as §1, §2

[25] = target: T1, soluble human FcRn (shFcRn); assay: IgG competition ELISA; remark: listed apart in the source
Description: as §3

[26] = target: T1, soluble human FcRn (shFcRn); assay: IgG competition ELISA; remark: listed apart in the source
Description: as §3

[27] = target: T1, soluble human FcRn (shFcRn); assay: IgG competition ELISA; remark: listed apart in the source
Description: as §3

[28] = target: T1, soluble human FcRn (shFcRn); assay: IgG competition ELISA; remark: listed apart in the source
Description: as §3

[29] = target: T1, soluble human FcRn (shFcRn); assay: SPR pH 6; remark: listed apart in the source
Description: as §1, §2

[30] = target: T1, soluble human FcRn (shFcRn); assay: IgG competition ELISA; remark: listed apart in the source
Description: as §3

[31] = target: T1, soluble human FcRn (shFcRn); assay: IgG competition ELISA; remark: listed apart in the source
Description: as §3

[32] = target: T1, soluble human FcRn (shFcRn); assay: SPR pH 6; remark: listed apart in the source
Description: as §1, §4

[33] = target: T1, soluble human FcRn (shFcRn); assay: IgG competition ELISA; remark: listed apart in the source
[34] = target: T1, soluble human FcRn (shFcRn); assay: SPR pH 7.4; ThienylAla in place of His
Description: as §1, §2

[35] = target: T1, soluble human FcRn (shFcRn); assay: SPR pH 6; ThienylAla in place of His
Description: as §1, §2

[36] = target: T1, soluble human FcRn (shFcRn); assay: SPR pH 6; 4-PyridylAla in place of His
Description: as §1, §2

[37] = target: T1, soluble human FcRn (shFcRn); assay: SPR pH 7.4; 4-PyridylAla in place of His
Description: as §1, §2

T1 sequence (P55899 24-297 limits assumed, chain 1 of 2): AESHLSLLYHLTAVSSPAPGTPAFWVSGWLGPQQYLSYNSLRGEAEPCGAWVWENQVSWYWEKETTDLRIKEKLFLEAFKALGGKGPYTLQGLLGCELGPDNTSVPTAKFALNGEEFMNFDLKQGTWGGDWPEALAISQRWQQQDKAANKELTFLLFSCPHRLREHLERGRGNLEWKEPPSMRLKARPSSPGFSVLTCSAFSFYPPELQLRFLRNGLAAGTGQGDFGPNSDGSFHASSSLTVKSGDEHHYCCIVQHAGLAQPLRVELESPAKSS
T1 sequence (P61769 21-119 limits assumed, chain 2 of 2): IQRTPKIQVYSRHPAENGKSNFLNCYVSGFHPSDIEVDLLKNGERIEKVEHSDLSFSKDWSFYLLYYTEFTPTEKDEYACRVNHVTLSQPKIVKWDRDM

Binder: RFCTGXFGGLYPC (Pen 3; 2-PyrrolidinylAla 6; Sar 9; NMeLeu 10; disulfide 3-13; C-terminal amide) [Peptide No. 262]
- Kd [1]: 8.4 µM

Binder: RFCTGXFGGLYPC (Pen 3; Orn 6; Sar 9; NMeL 10; disulfide 3-13; C-terminal amide) [Peptide No. 254]
- Kd [2]: 1300 nM

Binder: RFCTGXFGGLYPC (Pen 3; 4-PiperidylAla 6; Sar 9; NMeLeu 10; disulfide 3-13; C-terminal amide) [Peptide No. 264]
- Kd [3]: 5.2 µM
- Kd [4]: 6.4 µM
- IC50 [5]: 85000 nM

Binder: QRFVTGHFG[dP]LYPVNGP-NH2 [Peptide No. 167]
- IC50 [6]: 93 µM

Binder: RFCTGXFGGLYPC (Pen 3; 3PyridylAla 6; Sar 9; NMeL 10; disulfide 3-13; C-terminal amide) [Peptide No. 250]
- Kd [7]: 260 nM
- Kd [8]: 64 nM
- IC50 [5]: 1200 nM

B1: Peptide No. 289 (peptide)
peptide: RF[Pen]TGHFG[Sar][NMeL]YPC-NH2
modifications: disulfide 3-13; also: dimer: N-termini joined by an Asp linker carrying PEG 30 kDa, further groups not given here
notes: site of PEG only in drawing CHEM-US-00136; also called Pegylated Analog of Peptide No. 285
- IC50 [9]: 18 nM

B2: Peptide No. 24 (peptide)
peptide: QRFCTGHF[dA][dA]LYPCNGP-NH2
modifications: disulfide 4-14; N-terminus assumed
SMILES: CC(C)C[C@@H]1NC(=O)[C@@H](C)NC(=O)[C@@H](C)NC(=O)[C@H](Cc2ccccc2)NC(=O)[C@H](Cc2c[nH]cn2)NC(=O)CNC(=O)[C@H]([C@@H](C)O)NC(=O)[C@@H](NC(=O)[C@H](Cc2ccccc2)NC(=O)[C@H](CCCNC(=N)N)NC(=O)[C@@H](N)CCC(N)=O)CSSC[C@@H](C(=O)N[C@@H](CC(N)=O)C(=O)NCC(=O)N2CCC[C@H]2C(N)=O)NC(=O)[C@@H]2CCCN2C(=O)[C@H](Cc2ccc(O)cc2)NC1=O
- Kd [10]: > 250 µM

B3: Peptide No. 84 (peptide)
peptide: QRF[Pen]TGHFGGHYPCNGP-NH2
modifications: disulfide 4-14; N-terminus assumed
SMILES: C[C@@H](O)[C@@H]1NC(=O)[C@@H](NC(=O)[C@H](Cc2ccccc2)NC(=O)[C@H](CCCNC(=N)N)NC(=O)[C@@H](N)CCC(N)=O)C(C)(C)SSC[C@@H](C(=O)N[C@@H](CC(N)=O)C(=O)NCC(=O)N2CCC[C@H]2C(N)=O)NC(=O)[C@@H]2CCCN2C(=O)[C@H](Cc2ccc(O)cc2)NC(=O)[C@H](Cc2c[nH]cn2)NC(=O)CNC(=O)CNC(=O)[C@H](Cc2ccccc2)NC(=O)[C@H](Cc2c[nH]cn2)NC(=O)CNC1=O
- Kd [11]: 380 nM
- Kd [12]: 2500 nM

B4: Peptide No. 31 (peptide)
peptide: QRF[dC]TGHFGGLYP[dC]NGP-NH2
modifications: disulfide 4-14; N-terminus assumed
SMILES: CC(C)C[C@@H]1NC(=O)CNC(=O)CNC(=O)[C@H](Cc2ccccc2)NC(=O)[C@H](Cc2c[nH]cn2)NC(=O)CNC(=O)[C@H]([C@@H](C)O)NC(=O)[C@H](NC(=O)[C@H](Cc2ccccc2)NC(=O)[C@H](CCCNC(=N)N)NC(=O)[C@@H](N)CCC(N)=O)CSSC[C@H](C(=O)N[C@@H](CC(N)=O)C(=O)NCC(=O)N2CCC[C@H]2C(N)=O)NC(=O)[C@@H]2CCCN2C(=O)[C@H](Cc2ccc(O)cc2)NC1=O
- Kd [13]: 200 µM
- IC50 [14]: > 500000 nM

B5: Peptide No. 32 (peptide)
peptide: QRF[Pen]TGHFGGLYPCNGP-NH2
modifications: disulfide 4-14; N-terminus assumed
SMILES: CC(C)C[C@@H]1NC(=O)CNC(=O)CNC(=O)[C@H](Cc2ccccc2)NC(=O)[C@H](Cc2c[nH]cn2)NC(=O)CNC(=O)[C@H]([C@@H](C)O)NC(=O)[C@@H](NC(=O)[C@H](Cc2ccccc2)NC(=O)[C@H](CCCNC(=N)N)NC(=O)[C@@H](N)CCC(N)=O)C(C)(C)SSC[C@@H](C(=O)N[C@@H](CC(N)=O)C(=O)NCC(=O)N2CCC[C@H]2C(N)=O)NC(=O)[C@@H]2CCCN2C(=O)[C@H](Cc2ccc(O)cc2)NC1=O
- Kd [15]: 250 nM
- Kd [16]: 250 nM
- Kd [17]: 250 nM
- Kd [11]: 250 nM
- IC50 [18]: 2000 nM
- IC50 [14]: 2000 nM
- Kd [19]: 250 nM
- Kd [20]: 250 nM
- Kd [21]: 250 nM
- Kd [22]: 250 nM
- IC50 [23]: 2000 nM
- Kd [24]: 250 nM
- IC50 [25]: 2000 nM
- IC50 [26]: 2000 nM
- IC50 [27]: 2000 nM
- IC50 [28]: 2000 nM
- Kd [29]: 250 nM
- IC50 [30]: 2000 nM
- IC50 [31]: 2000 nM
- Kd [32]: 250 nM
- IC50 [5]: 2000 nM
- IC50 [33]: 2000 nM

Binder: RFCTGXFGGLYPC (Pen 3; ThienylAla 6; Sar 9; NMeL 10; disulfide 3-13; C-terminal amide) [Peptide No. 251]
- Kd [34]: 3000 nM
- Kd [35]: 2000 nM
- IC50 [5]: 45000 nM

Binder: RFCTGXFGGLYPC (Pen 3; 4-PyridylAla 6; Sar 9; NMeLeu 10; disulfide 3-13; C-terminal amide) [Peptide No. 268]
- Kd [36]: 67 nM
- Kd [37]: 280 nM
- IC50 [5]: 1300 nM
